B1: Q71NL92AM155TF157L: mutated TriA variant of SEQ ID NO: 2 (protein)
chain: MQTLSIQHGTLVTMDQYRRVLGDSWVHVQDGRIVALGVHAESVPPPADRVIDARGKVVLPGFINAHTHVNNILLRGGPSHGRQLYDWLFNVAYPGQKAMRPEDVAVAVRLYCAEAVRSGITTINDNADSAIYPGNIEAAMAVYGEVGVRVVYARTFLDRMDGRIQGYVDALKARSPQVELCSIMEETAVAKDRITALSDQYHGTAGGRISVWPAPAITPAVTVEGMRWAQAFARDRAVMWTLHMAESDHDERLHWMSPAEYMECYGLLDERLQVAHCVYFDRKDVRLLHRHNVKVASQVVSNAYLGSGVAPVPEMVERGMAVGIGTDDGNCNDSVNMIGDMKFMAHIHRAVHRDADVLTPEKILEMATIDGARSLGMDHEIGSIETGKRADLILLDLRHPQTTPHHHLAATIVFQAYGNEVDTVLIDGNVVMENRRLSFLPPERELAFLEEAQSRATAILQRANMVANPAWRSL
modifications: Pseudomonas
B2: Q71NL92AM155TF157V: mutated TriA variant of SEQ ID NO: 2 (protein)
chain: MQTLSIQHGTLVTMDQYRRVLGDSWVHVQDGRIVALGVHAESVPPPADRVIDARGKVVLPGFINAHTHVNNILLRGGPSHGRQLYDWLFNVAYPGQKAMRPEDVAVAVRLYCAEAVRSGITTINDNADSAIYPGNIEAAMAVYGEVGVRVVYARTFVDRMDGRIQGYVDALKARSPQVELCSIMEETAVAKDRITALSDQYHGTAGGRISVWPAPAITPAVTVEGMRWAQAFARDRAVMWTLHMAESDHDERLHWMSPAEYMECYGLLDERLQVAHCVYFDRKDVRLLHRHNVKVASQVVSNAYLGSGVAPVPEMVERGMAVGIGTDDGNCNDSVNMIGDMKFMAHIHRAVHRDADVLTPEKILEMATIDGARSLGMDHEIGSIETGKRADLILLDLRHPQTTPHHHLAATIVFQAYGNEVDTVLIDGNVVMENRRLSFLPPERELAFLEEAQSRATAILQRANMVANPAWRSL
modifications: Pseudomonas
B3: Q71C: mutated TriA variant of SEQ ID NO: 2 (protein)
chain: MQTLSIQHGTLVTMDQYRRVLGDSWVHVQDGRIVALGVHAESVPPPADRVIDARGKVVLPGFINAHTHVNCILLRGGPSHGRQLYDWLFNVLYPGQKAMRPEDVAVAVRLYCAEAVRSGITTINDNADSAIYPGNIEAAMAVYGEVGVRVVYARMFFDRMDGRIQGYVDALKARSPQVELCSIMEETAVAKDRITALSDQYHGTAGGRISVWPAPAITPAVTVEGMRWAQAFARDRAVMWTLHMAESDHDERLHWMSPAEYMECYGLLDERLQVAHCVYFDRKDVRLLHRHNVKVASQVVSNAYLGSGVAPVPEMVERGMAVGIGTDDGNCNDSVNMIGDMKFMAHIHRAVHRDADVLTPEKILEMATIDGARSLGMDHEIGSIETGKRADLILLDLRHPQTTPHHHLAATIVFQAYGNEVDTVLIDGNVVMENRRLSFLPPERELAFLEEAQSRATAILQRANMVANPAWRSL
modifications: Pseudomonas
B4: L92AF89AY93A: mutated TriA variant of SEQ ID NO: 2 (protein)
chain: MQTLSIQHGTLVTMDQYRRVLGDSWVHVQDGRIVALGVHAESVPPPADRVIDARGKVVLPGFINAHTHVNQILLRGGPSHGRQLYDWLANVAAPGQKAMRPEDVAVAVRLYCAEAVRSGITTINDNADSAIYPGNIEAAMAVYGEVGVRVVYARMFFDRMDGRIQGYVDALKARSPQVELCSIMEETAVAKDRITALSDQYHGTAGGRISVWPAPAITPAVTVEGMRWAQAFARDRAVMWTLHMAESDHDERLHWMSPAEYMECYGLLDERLQVAHCVYFDRKDVRLLHRHNVKVASQVVSNAYLGSGVAPVPEMVERGMAVGIGTDDGNCNDSVNMIGDMKFMAHIHRAVHRDADVLTPEKILEMATIDGARSLGMDHEIGSIETGKRADLILLDLRHPQTTPHHHLAATIVFQAYGNEVDTVLIDGNVVMENRRLSFLPPERELAFLEEAQSRATAILQRANMVANPAWRSL
modifications: Pseudomonas
B5: L92AY93A: mutated TriA variant of SEQ ID NO: 2 (protein)
chain: MQTLSIQHGTLVTMDQYRRVLGDSWVHVQDGRIVALGVHAESVPPPADRVIDARGKVVLPGFINAHTHVNQILLRGGPSHGRQLYDWLFNVAAPGQKAMRPEDVAVAVRLYCAEAVRSGITTINDNADSAIYPGNIEAAMAVYGEVGVRVVYARMFFDRMDGRIQGYVDALKARSPQVELCSIMEETAVAKDRITALSDQYHGTAGGRISVWPAPAITPAVTVEGMRWAQAFARDRAVMWTLHMAESDHDERLHWMSPAEYMECYGLLDERLQVAHCVYFDRKDVRLLHRHNVKVASQVVSNAYLGSGVAPVPEMVERGMAVGIGTDDGNCNDSVNMIGDMKFMAHIHRAVHRDADVLTPEKILEMATIDGARSLGMDHEIGSIETGKRADLILLDLRHPQTTPHHHLAATIVFQAYGNEVDTVLIDGNVVMENRRLSFLPPERELAFLEEAQSRATAILQRANMVANPAWRSL
modifications: Pseudomonas
B6: L92AF89A: mutated TriA variant of SEQ ID NO: 2 (protein)
chain: MQTLSIQHGTLVTMDQYRRVLGDSWVHVQDGRIVALGVHAESVPPPADRVIDARGKVVLPGFINAHTHVNQILLRGGPSHGRQLYDWLANVAYPGQKAMRPEDVAVAVRLYCAEAVRSGITTINDNADSAIYPGNIEAAMAVYGEVGVRVVYARMFFDRMDGRIQGYVDALKARSPQVELCSIMEETAVAKDRITALSDQYHGTAGGRISVWPAPAITPAVTVEGMRWAQAFARDRAVMWTLHMAESDHDERLHWMSPAEYMECYGLLDERLQVAHCVYFDRKDVRLLHRHNVKVASQVVSNAYLGSGVAPVPEMVERGMAVGIGTDDGNCNDSVNMIGDMKFMAHIHRAVHRDADVLTPEKILEMATIDGARSLGMDHEIGSIETGKRADLILLDLRHPQTTPHHHLAATIVFQAYGNEVDTVLIDGNVVMENRRLSFLPPERELAFLEEAQSRATAILQRANMVANPAWRSL
modifications: Pseudomonas
B7: Q71NL92AD328G: mutated TriA variant of SEQ ID NO: 2 (protein)
chain: MQTLSIQHGTLVTMDQYRRVLGDSWVHVQDGRIVALGVHAESVPPPADRVIDARGKVVLPGFINAHTHVNNILLRGGPSHGRQLYDWLFNVAYPGQKAMRPEDVAVAVRLYCAEAVRSGITTINDNADSAIYPGNIEAAMAVYGEVGVRVVYARMFFDRMDGRIQGYVDALKARSPQVELCSIMEETAVAKDRITALSDQYHGTAGGRISVWPAPAITPAVTVEGMRWAQAFARDRAVMWTLHMAESDHDERLHWMSPAEYMECYGLLDERLQVAHCVYFDRKDVRLLHRHNVKVASQVVSNAYLGSGVAPVPEMVERGMAVGIGTDGGNCNDSVNMIGDMKFMAHIHRAVHRDADVLTPEKILEMATIDGARSLGMDHEIGSIETGKRADLILLDLRHPQTTPHHHLAATIVFQAYGNEVDTVLIDGNVVMENRRLSFLPPERELAFLEEAQSRATAILQRANMVANPAWRSL
modifications: Pseudomonas
B8: Q71NL92AM155VF157L: mutated TriA variant of SEQ ID NO: 2 (protein)
chain: MQTLSIQHGTLVTMDQYRRVLGDSWVHVQDGRIVALGVHAESVPPPADRVIDARGKVVLPGFINAHTHVNNILLRGGPSHGRQLYDWLFNVAYPGQKAMRPEDVAVAVRLYCAEAVRSGITTINDNADSAIYPGNIEAAMAVYGEVGVRVVYARVFLDRMDGRIQGYVDALKARSPQVELCSIMEETAVAKDRITALSDQYHGTAGGRISVWPAPAITPAVTVEGMRWAQAFARDRAVMWTLHMAESDHDERLHWMSPAEYMECYGLLDERLQVAHCVYFDRKDVRLLHRHNVKVASQVVSNAYLGSGVAPVPEMVERGMAVGIGTDDGNCNDSVNMIGDMKFMAHIHRAVHRDADVLTPEKILEMATIDGARSLGMDHEIGSIETGKRADLILLDLRHPQTTPHHHLAATIVFQAYGNEVDTVLIDGNVVMENRRLSFLPPERELAFLEEAQSRATAILQRANMVANPAWRSL
modifications: Pseudomonas

assay type: biochemical; conditions: pH 7.2
Method: EXAMPLE 3: Protein Purification. TriA and variants thereof were produced in E. coli BL21(DE3) Gold (Agilent Technologies, Germany). Therefore E. coli was transformed with appropriate pET24d N-HIS tag expression vector and chaperone plasmid pGro7 (chaperones groEL and groES). Bacterial strains were grown at 30° C. in 100 mL LB for 20 h and protein expression induced with 0.1 mM IPTG at 25° C. for 20 hs. Cells were harvested by centrifugation at 3000 rpm at 4° C. for 20 min, resuspended in Bug Buster protein extraction reagent (Novagen, Germany) according to manufactures instructions. Lysates were clarified by centrifugation. Samples of bovine serum albumin ([…]) were loaded onto each gel analyzed by densitometry to provide an internal standard. Protein determinations were verified using Coomassie protein assay dye, according to manufactures instruction (Thermo Scientific; USA). The HIS-tagged enzymes were purified by metal ion affinity chromatography using Ni-IDA 1000 kit (Macherey-Nagel, Germany) following manufactures instructions. Protein purity was accessed by SDS-PAGE using NuPAGE Novex 4-12% Bis-Tris pre-cast gels (Life Technologies; USA) stained with Coomassie Brilliant Blue (Serva, Germany). Protein concentrations were estimated by measuring absorbance at 280 nm using Lambda Bio+(Perkin Elmer, USA). EXAMPLE 4: Enzyme kinetics. Resting cell suspension containing triA gene were incubated with various azines, melamine and atrazine and the culture filtrate was analyzed by UPLC-HR-MS. Substrates were obtained either from Sigma-Aldrich or synthesized internally. Synthetic standards and enzyme reaction products were analysed by UPLC-HR-MS (Thermo/Dionex UPLC UltiMate3000 coupled to a QExactive high resolution mass spectrometer). A Waters Acquity HSS T3 column (2.1 mm; 100 mm; […]) was used with a mobile phase water/acetonitrile (0.1% formic acid) with a flow rate of […]. Enzymes were used solved 25 mM sodium phosphate buffer (pH 7.2) with substrate concentration in the range of 1 nM to 10 nM at 30° C. Over time, the original azine peak disappeared whereas the formed OH-Metabolite (reaction product) increased. The product was identified by determination of the exact formula and by analysis of the accurate MS-MS fragments. Moreover for some of the formed products authentic standards were co-eluted. Degradation in % was calculated against the cells harboring the empty vector as control.

First: B1
Second: B2
The “Degradation in % of 6-cyclopentyl-N4-(2,3,4,5,6-pentafluorophenyl)-1,3,5-triazine-2,4-diamine” value of the first is lower: 98% for the first, 99% for the second.

Compared with B3, B4 is higher in “Degradation in % of 6-cyclopentyl-N4-(2,3,4,5,6-pentafluorophenyl)-1,3,5-triazine-2,4-diamine” value: 0% for the first, 100% for the second.

Going from B5 to B6, the “Degradation in % of 6-cyclopentyl-N4-(2,3,4,5,6-pentafluorophenyl)-1,3,5-triazine-2,4-diamine” value rises from 56% to 100%.

First: B7
Second: B8
The “Degradation in % of 6-cyclopentyl-N4-(2,3,4,5,6-pentafluorophenyl)-1,3,5-triazine-2,4-diamine” value of the first is lower: 6% for the first, 100% for the second.

Compared with B1, B2 is higher in “Degradation in % of Melamine” value: 44% for the first, 52% for the second.

Compared with B3, B4 is higher in “Degradation in % of Melamine” value: 5% for the first, 63% for the second.

Going from B5 to B6, the “Degradation in % of Melamine” value rises from 1% to 100%.

First: B7
Second: B8
The “Degradation in % of Melamine” value of the first is lower: 0% for the first, 67% for the second.
